The record followed here is paper doi:10.1101/466904 (bioRxiv, 2018).

Data set [1] concerns the target 3RJT protein Asn183Ala mutant (Alicyclobacillus acidocaldarius subsp. Acidocaldarius DSM446). Put plainly: SEC. On the technique in general: Size exclusion chromatography separates by hydrodynamic size, large species first.
For data set [2], the target named is Cph, Axe2 homologue. Put plainly: SEC.
Data set [3] addresses Cph, Axe2 homologue. Put plainly: dynamic light scattering.
The target of data set [4] is Pal, Axe2 homologue. In words: SEC.
Data set [5] concerns the target Pal, Axe2 homologue. Put plainly: dynamic light scattering.
The target in data set [6] is Pda, Axe2 homologue. In words: SEC.
Data set [7] has as its target Pda, Axe2 homologue. In words: dynamic light scattering.
Data set [8] addresses Pjd, Axe2 homologue. In words: SEC.
In data set [9] the target is Pjd, Axe2 homologue. In words: dynamic light scattering.
Data set [10] deals with Sku, Axe2 homologue. In words: SEC.
Data set [11] addresses Sku, Axe2 homologue. In words: dynamic light scattering.
Data set [12] deals with the molecule itself. Put plainly: SEC.
Data set [13] concerns the molecule itself. In words: SEC. This is another data set of the same source.
Data set [14] deals with the molecule itself. In words: SEC. The source holds these as a separate data set.

Positions count from the first letter of the chain named. Where two headings read alike, the source gives them in different places.

A word on the stoichiometry N: it is a count of units in the complex or per binding partner. Molecule 3RJT protein Asn183Ala mutant (enzyme) yielded a stoichiometry N in data set [1] of 2.

As for Cph, Axe2 homologue (enzyme), the stoichiometry N in [2] and in [3] was 8 in each case.

Take Pal, Axe2 homologue (enzyme): the stoichiometry N in data set [4] and in data set [5] was 8 each time.

Consider Pda, Axe2 homologue (enzyme), for which the stoichiometry N in data set [6] and in [7] was 8 each time.

On to Pjd, Axe2 homologue (enzyme), for which the stoichiometry N in data set [8] and in [9] was 8 throughout.

In the case of Sku, Axe2 homologue (enzyme), the stoichiometry N in [10] and in data set [11] was 8 throughout.

B1: Axe2 acetyl-xylo-oligosaccharide esterase from Geobacillus stearothermophilus, wild type (enzyme)
chain: MKIGSGEKLLFIGDSITDCGRARPEGEGSFGALGTGYVAYVVGLLQAVYPELGIRVVNKGISGNTVRDLKARWEEDVIAQKPDWVSIMIGINDVWRQYDLPFMKEKHVYLDEYEATLRSLVLETKPLVKGIILMTPFYIEGNEQDPMRRTMDQYGRVVKQIAEETNSLFVDTQAAFNEVLKTLYPAALAWDRVHPSVAGHMILARAFLREIGFEWVRSR
For the molecule B1, in data set [12], the “stoichiometry N” value was 8.

B2: Axe2 Arg192Lys mutant (enzyme)
chain: B1 chain with R192K
Consider B2, for which the “stoichiometry N” value in data set [12] turned out to be 2.

B3: Axe2 Arg55Ala mutant (enzyme)
chain: B1 chain with R55A
Take B3: in [13], the “stoichiometry N” value was determined as 8.

B4: Axe2 Trp190Ile mutant (enzyme)
chain: B1 chain with W190I
Take B4: the “stoichiometry N” value in [12] is 8.

B5: Axe2 Tyr184Phe mutant (enzyme)
chain: B1 chain with Y184F
Take B5: in data set [12], the “stoichiometry N” value came to 2.

B6: Axe2 triple mutant Tyr184Phe-Arg205Ala-Trp215Ala (enzyme)
chain: B1 chain with Y184F, R205A, W215A
On to B6, for which, in data set [12], the “stoichiometry N” value was found to be 2.

B7: Axe2 Arg55Glu mutant (enzyme)
chain: B1 chain with R55E
Take B7: the “stoichiometry N” value in data set [14] is 2; in data set [13], 8.
